Assay results published in the supplement of paper PMC11246515.
± gives the standard deviation of the averaged measurements.

Assay: total protein half-life in vivo (active degradation + dilution); higher = more stable protein
[1] = E. coli NCM3722 delta-clpP, growth: N-lim chemostat, doubling time 6 h
[2] = E. coli NCM3722 delta-clpP delta-lon delta-hslV, growth: N-lim chemostat, doubling time 6 h
[3] = wild type E. coli NCM3722, growth: N-lim chemostat, doubling time 12 h
[4] = E. coli NCM3722 delta-hslV, growth: N-lim chemostat, doubling time 6 h
[5] = E. coli NCM3722 delta-lon, growth: N-lim chemostat, doubling time 6 h
[6] = E. coli NCM3722 delta-smpB, growth: N-lim chemostat, doubling time 6 h
[7] = wild type E. coli NCM3722, growth: C-lim chemostat, doubling time 3 h
[8] = wild type E. coli NCM3722, growth: C-lim chemostat, doubling time 6 h
[9] = wild type E. coli NCM3722, growth: C-lim chemostat, doubling time 12 h
[10] = wild type E. coli NCM3722, growth: N-lim chemostat, doubling time 6 h
[11] = wild type E. coli NCM3722, growth: P-lim chemostat, doubling time 6 h
[12] = wild type E. coli NCM3722, growth: P-lim chemostat, doubling time 12 h

| Sequence | total protein half-life in vivo [1] [h] | total protein half-life in vivo [2] [h] | total protein half-life in vivo [3] [h] | total protein half-life in vivo [4] [h] | total protein half-life in vivo [5] [h] | total protein half-life in vivo [6] [h] | total protein half-life in vivo [7] [h] | total protein half-life in vivo [8] [h] | total protein half-life in vivo [9] [h] | total protein half-life in vivo [10] [h] | total protein half-life in vivo [11] [h] | total protein half-life in vivo [12] [h] |
| --- | --- | --- | --- | --- | --- | --- | --- | --- | --- | --- | --- | --- |
| MSLAKDNIWKLLAPLVVMGVMFLIPVPDGMPPQAWHYFAVFVAMIVGMILEPIPATAISFIAVTICVIGSNYLLFDAKELADPAFNAQKQALKWGLAGFSSTTVWLVFGAFIFALGYEVSGLGRRIALFLVKFMGKRTLTLGYAIVIIDILLAPFTPSNTARTGGTVFPVIKNLPPLFKSFPNDPSARRIGGYLMWMMVISTSLSSSMFVTGAAPNVLGLEFVSKIAGIQISWLQWFLCFLPVGVILLIIAPWLSYVLYKPEITHSEEVATWAGDELKTMGALTRREWTLIGLVLLSLGLWVFGSEVINATAVGLLAVSLMLALHVVPWKDITRYNSAWNTLVNLATLVVMANGLTRSGFIDWFAGTMSTHLEGFSPNATVIVLVLVFYFAHYLFASLSAHTATMLPVILAVGKGIPGVPMEQLCILLVLSIGIMGCLTPYATGPGVIIYGCGYVKSKDYWRLGAIFGVIYISMLLLVGWPILAMWN [P0AE74] | 7.68 |  |  |  |  |  |  |  |  |  |  |  |
| MDWLLDVFATWLYGLKVIAITLAVIMFISGLDDFFIDVVYWVRRIKRKLSVYRRYPRMSYRELYKPDEKPLAIMVPAWNETGVIGNMAELAATTLDYENYHIFVGTYPNDPDTQRDVDEVCARFPNVHKVVCARPGPTSKADCLNNVLDAITQFERSANFAFAGFILHDAEDVISPMELRLFNYLVERKDLIQIPVYPFEREWTHFTSMTYIDEFSELHGKDVPVREALAGQVPSAGVGTCFSRRAVTALLADGDGIAFDVQSLTEDYDIGFRLKEKGMTEIFVRFPVVDEAKEREQRKFLQHARTSNMICVREYFPDTFSTAVRQKSRWIIGIVFQGFKTHKWTSSLTLNYFLWRDRKGAISNFVSFLAMLVMIQLLLLLAYESLWPDAWHFLSIFSGSAWLMTLLWLNFGLMVNRIVQRVIFVTGYYGLTQGLLSVLRLFWGNLINFMANWRALKQVLQHGDPRRVAWDKTTHDFPSVTGDTRSLRPLGQILLENQVITEEQLDTALRNRVEGLRLGGSMLMQGLISAEQLAQALAEQNGVAWESIDAWQIPSSLIAEMPASVALHYAVLPLRLENDELIVGSEDGIDPVSLAALTRKVGRKVRYVIVLRGQIVTGLRHWYARRRGHDPRAMLYNAVQHQWLTEQQAGEIWRQYVPHQFLFAEILTTLGHINRSAINVLLLRHERSSLPLGKFLVTEGVISQETLDRVLTIQRELQVSMQSLLLKAGLNTEQVAQLESENEGE [P0AFA5] |  | 4.66 ± 1.7 | 9.6 ± 6.5 |  |  |  |  |  |  |  |  |  |
| MNIEELKKQAETEIADFIAQKIAELNKNTGKEVSEIRFTAREKMTGLESYDVKIKIM [P0AC92] | 5.88 ± 0.43 | > 8 |  | 6.62 ± 0.26 | 6.72 ± 0.85 | 5.86 ± 0.59 | 2.98 ± 0.29 | 4.55 ± 2.8 | 10 ± 1.4 | 5.99 ± 1.4 | 6.14 |  |
| MMKKPVVIGLAVVVLAAVVAGGYWWYQSRQDNGLTLYGNVDIRTVNLSFRVGGRVESLAVDEGDAIKAGQVLGELDHKPYEIALMQAKAGVSVAQAQYDLMLAGYRNEEIAQAAAAVKQAQAAYDYAQNFYNRQQGLWKSRTISANDLENARSSRDQAQATLKSAQDKLRQYRSGNREQDIAQAKASLEQAQAQLAQAELNLQDSTLIAPSDGTLLTRAVEPGTVLNEGGTVFTVSLTRPVWVRAYVDERNLDQAQPGRKVLLYTDGRPDKPYHGQIGFVSPTAEFTPKTVETPDLRTDLVYRLRIVVTDADDALRQGMPVTVQFGDEAGHE |  | 6.76 ± 0.87 | 13.54 ± 0.12 | 6.75 ± 0.14 | 6.47 ± 0.38 | 6.26 ± 0.13 | 3.39 ± 0.38 |  | 11.2 ± 1.9 | 6.2 ± 0.46 | 6.02 ± 0.17 | 14.2 ± 0.91 |
| MAGNDREPIGRKGKPTRPVKQKVSRRRYEDDDDYDDYDDYEDEEPMPRKGKGKGKGRKPRGKRGWLWLLLKLAIVFAVLIAIYGVYLDQKIRSRIDGKVWQLPAAVYGRMVNLEPDMTISKNEMVKLLEATQYRQVSKMTRPGEFTVQANSIEMIRRPFDFPDSKEGQVRARLTFDGDHLATIVNMENNRQFGFFRLDPRLITMISSPNGEQRLFVPRSGFPDLLVDTLLATEDRHFYEHDGISLYSIGRAVLANLTAGRTVQGASTLTQQLVKNLFLSSERSYWRKANEAYMALIMDARYSKDRILELYMNEVYLGQSGDNEIRGFPLASLYYFGRPVEELSLDQQALLVGMVKGASIYNPWRNPKLALERRNLVLRLLQQQQIIDQELYDMLSARPLGVQPRGGVISPQPAFMQLVRQELQAKLGDKVKDLSGVKIFTTFDSVAQDAAEKAAVEGIPALKKQRKLSDLETAIVVVDRFSGEVRAMVGGSEPQFAGYNRAMQARRSIGSLAKPATYLTALSQPKIYRLNTWIADAPIALRQPNGQVWSPQNDDRRYSESGRVMLVDALTRSMNVPTVNLGMALGLPAVTETWIKLGVPKDQLHPVPAMLLGALNLTPIEVAQAFQTIASGGNRAPLSALRSVIAEDGKVLYQSFPQAERAVPAQAAYLTLWTMQQVVQRGTGRQLGAKYPNLHLAGKTGTTNNNVDTWFAGIDGSTVTITWVGRDNNQPTKLYGASGAMSIYQRYLANQTPTPLNLVPPEDIADMGVDYDGNFVCSGGMRILPVWTSDPQSLCQQSEMQQQPSGNPFDQSSQPQQQPQQQPAQQEQKDSDGVAGWIKDMFGSN | 6.43 ± 0.51 | 6.443 ± 0.011 | 12.5 ± 0.15 | 6.2211 ± 0.00055 | 6.266 ± 0.031 | 6.19 ± 0.56 | 3.17 ± 0.036 | 6.09 ± 0.71 | 12.4 ± 1.3 | 6.01 ± 0.19 | 6.15 ± 0.58 | 12.4 ± 0.17 |
